Results: US20260097113A1 (Pfizer, published 2026)

Legend:
[1] = target: RSV A + RSV B bivalent composition (RSV subtype A; RSV subtype B); test: AM14 Fab titration by SEC; Low-Fast cycle; T0 (second value)
[2] = target: RSV A + RSV B bivalent composition (RSV subtype A; RSV subtype B); test: AM14 Fab titration by SEC; High-Slow 2 cycle; 1 M 40°C (second value)
[3] = target: RSV A + RSV B bivalent composition (RSV subtype A; RSV subtype B); test: AM14 Fab titration by SEC; composition of Table 14; Freezing Ramp Aggressive cycle
[4] = target: T1, RSV F protein of subtype A comprising a polypeptide of SEQ ID NO: 1 and a polypeptide of SEQ ID NO: 2 (RSV subtype A, UniProt P11209 137-513; P03420 26-109); test: AM14 ELISA; F19 (pH 7, 50 mM NaCl, 3% trehalose + 3% mannitol); 1 wk 5°C
T1 construct: Stabilized prefusion F trimer made of three F2-F1 heterodimers; Produced recombinantly in CHO cells; also called RSV A; RSVA
T1 chain 1: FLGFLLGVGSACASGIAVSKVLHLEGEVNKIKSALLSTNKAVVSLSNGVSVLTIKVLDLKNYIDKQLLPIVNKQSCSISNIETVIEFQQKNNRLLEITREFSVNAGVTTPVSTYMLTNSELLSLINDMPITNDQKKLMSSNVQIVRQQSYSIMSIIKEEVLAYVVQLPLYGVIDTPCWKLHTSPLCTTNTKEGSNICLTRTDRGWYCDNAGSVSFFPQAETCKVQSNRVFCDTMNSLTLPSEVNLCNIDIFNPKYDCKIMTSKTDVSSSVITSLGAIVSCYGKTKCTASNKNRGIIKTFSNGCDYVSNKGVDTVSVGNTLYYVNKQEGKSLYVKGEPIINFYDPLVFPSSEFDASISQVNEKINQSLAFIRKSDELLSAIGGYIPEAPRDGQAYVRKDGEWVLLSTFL
T1 chain 2: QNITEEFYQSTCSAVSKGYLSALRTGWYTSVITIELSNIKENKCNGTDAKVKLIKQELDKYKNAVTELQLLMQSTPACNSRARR

[5] = target: T1, RSV F protein of subtype A comprising a …; test: AM14 ELISA; F11 (pH 7, 50 mM NaCl, 9.0% sucrose); 1 wk 25°C
[6] = target: T1, RSV F protein of subtype A comprising a …; test: AM14 ELISA; F3 (pH 8, 0 mM NaCl, 9% sucrose); 2 wk 25°C
[7] = target: T1, RSV F protein of subtype A comprising a …; test: AM14 ELISA; F18 (pH 7, 50 mM NaCl, 3% sucrose + 3% mannitol); 1 wk 5°C
[8] = target: T1, RSV F protein of subtype A comprising a …; test: AM14 ELISA; F3 (pH 8, 0 mM NaCl, 9% sucrose); 1 wk 25°C
[9] = target: T1, RSV F protein of subtype A comprising a …; test: AM14 ELISA; F15 (pH 6, 0 mM NaCl, 9% sucrose); 1 wk 5°C
[10] = target: T1, RSV F protein of subtype A comprising a …; test: AM14 ELISA; F16 (pH 6, 0 mM NaCl, 0% sucrose); 2 wk 25°C
[11] = target: T1, RSV F protein of subtype A comprising a …; test: AM14 ELISA; F13 (pH 7, 100 mM NaCl, 4.5% sucrose); 1 wk 5°C
[12] = target: T1, RSV F protein of subtype A comprising a …; test: AM14 ELISA; F2 (pH 8, 0 mM NaCl, 0% sucrose); 1 wk 25°C
[13] = target: T1, RSV F protein of subtype A comprising a …; test: AM14 ELISA; F6 (pH 7, 0 mM NaCl, 4.5% sucrose); 2 wk 5°C
[14] = target: T1, RSV F protein of subtype A comprising a …; test: AM14 ELISA; F10 (pH 7, 50 mM NaCl, 4.5% sucrose); 1 wk 25°C
[15] = target: T1, RSV F protein of subtype A comprising a …; test: AM14 ELISA; F8 (pH 7, 50 mM NaCl, 0% sucrose); 2 wk 5°C

AM14 Fab
Prefusion Content (%) [1]: 82% | Prefusion Content (%) [2]: 68% | Prefusion Content (%) [3]: 62%

B1: AM14 (trimeric prefusion specific antibody of the AM14 ELISA) (antibody, V domains shown)
VH: EVQLVESGGGVVQPGRSLRLSCAASGFSFSHYAMHWVRQAPGKGLEWVAVISYDGENTYYADSVKGRFSISRDNSKNTVSLQMNSLRPEDTALYYCARDRIVDDYYYYGMDVWGQGATVTVSS
VL: DIQMTQSPSSLSASVGDRVTITCQASQDIKKYLNWYHQKPGKVPELLMHDASNLETGVPSRFSGRGSGTDFTLTISSLQPEDIGTYYCQQYDNLPPLTFGGGTKVEIKR
notes: Antibody as used in the AM14 ELISA, detected with an HRP-labeled secondary antibody
AM14 prefusion content (%), relative to standard [4]: 74% | AM14 prefusion content (%), relative to standard [5]: 91% | AM14 prefusion content (%), relative to standard [6]: 72% | AM14 prefusion content (%), relative to standard [7]: 56% | AM14 prefusion content (%), relative to standard [8]: 81% | AM14 prefusion content (%), relative to standard [9]: 86% | AM14 prefusion content (%), relative to standard [10]: 76% | AM14 prefusion content (%), relative to standard [11]: 76% | AM14 prefusion content (%), relative to standard [12]: 58% | AM14 prefusion content (%), relative to standard [13]: 77% | AM14 prefusion content (%), relative to standard [14]: 82% | AM14 prefusion content (%), relative to standard [15]: 101%
